From patent publication EP4682166A1 (Guangzhou Enmai Biotechnology Co., Ltd, dated 2026)

What was measured:
[1] = biological target: T1, human NMI (N-myc Interacting protein) (human) (UniProt Q13287); experiment: magnetic-bead chemiluminescent sandwich; capture 98G10 beads (0.5 mg 98G10), detection acridinium-B-8; hNMI 50 pg/ml
T1 sequence (looked up): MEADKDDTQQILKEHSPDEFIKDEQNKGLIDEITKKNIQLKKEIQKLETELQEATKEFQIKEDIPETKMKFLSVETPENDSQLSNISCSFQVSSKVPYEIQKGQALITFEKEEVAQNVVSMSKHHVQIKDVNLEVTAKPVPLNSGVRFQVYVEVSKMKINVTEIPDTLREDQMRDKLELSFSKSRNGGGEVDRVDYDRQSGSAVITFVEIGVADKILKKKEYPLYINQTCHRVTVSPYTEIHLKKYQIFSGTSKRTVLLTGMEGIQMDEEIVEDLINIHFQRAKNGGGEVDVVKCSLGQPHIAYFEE

[2] = biological target: T1, human NMI (N-myc Interacting protein) (human); experiment: magnetic-bead chemiluminescent sandwich; capture 98G10 beads (0.5 mg 98G10), detection acridinium-B-8; hNMI 100 pg/ml
[3] = biological target: T1, human NMI (N-myc Interacting protein) (human); experiment: magnetic-bead chemiluminescent sandwich; capture 98G10 beads (1.0 mg 98G10), detection acridinium-B-8; hNMI 1000 pg/ml
[4] = biological target: T1, human NMI (N-myc Interacting protein) (human); experiment: magnetic-bead chemiluminescent sandwich; capture 98G10 beads, detection acridinium-B-8 (1.0 mg B-8 labelled); hNMI 2000 pg/mL
[5] = biological target: T1, human NMI (N-myc Interacting protein) (human); experiment: magnetic-bead chemiluminescent sandwich; capture 98G10 beads, detection acridinium-B-8 (2.0 mg B-8 labelled); hNMI 1000 pg/mL
[6] = biological target: T1, human NMI (N-myc Interacting protein) (human); experiment: magnetic-bead chemiluminescent sandwich, kit of Example 8-1; capture 98G10 beads, detection acridinium-B-8; series 3, hNMI 50 pg/mL
[7] = biological target: T1, human NMI (N-myc Interacting protein) (human); experiment: magnetic-bead chemiluminescent sandwich, kit of Example 8-1; capture 98G10 beads, detection acridinium-B-8; series 1, hNMI 6000 pg/mL
[8] = biological target: T1, human NMI (N-myc Interacting protein) (human); experiment: magnetic-bead chemiluminescent sandwich, kit of Example 8-1; capture 98G10 beads, detection acridinium-B-8; series 2, hNMI 5000 pg/mL
[9] = biological target: T1, human NMI (N-myc Interacting protein) (human); experiment: magnetic-bead chemiluminescent sandwich, kit of Example 8-1; capture 98G10 beads, detection acridinium-B-8; series 1, hNMI 12000 pg/mL

B1: acridinium ester-labeled monoclonal antibody B-8 (antibody, V domains shown)
VH: QSLEESGGDLVKPGASLTLTCTASGFSFSSSYYMCWVRQAPGKGLEWIACIYAGSSGSTYYASWAKGRFTISKTSSTTVTLQMTSLTAADTATYFCAREYSYDDYGDFWGFNLWGPGTLVTVSS
VL: ALVMTQTPSSVSAAVGGTVTINCQASQNIYTNLAWYQQKPGQPPKLLIYGASNLESGVPSRFKGSGSGTEYTLTISDLECDDAATYYCQSSLYSRIADRANAFGGGTEVVVK
modifications: acridinium ester label on the antibody, site not stated
[1]
  Signal value: 4560
[2]
  Signal value: 9490
[3]
  Signal value: 201000
[4]
  Signal value: 204000
[5]
  Signal value: 116000
[6]
  Signal value: 6120
[7]
  Signal value: 414000
[8]
  Signal value: 560000
[9]
  Signal value: 894000
